In publication PMC10632791 one finds binding and Kd data, which are given here for 8 substances.

One data set deals with T1, DegU (Bacillus velezensis DMW1) (UniProt A3KLC2).
T1 sequence: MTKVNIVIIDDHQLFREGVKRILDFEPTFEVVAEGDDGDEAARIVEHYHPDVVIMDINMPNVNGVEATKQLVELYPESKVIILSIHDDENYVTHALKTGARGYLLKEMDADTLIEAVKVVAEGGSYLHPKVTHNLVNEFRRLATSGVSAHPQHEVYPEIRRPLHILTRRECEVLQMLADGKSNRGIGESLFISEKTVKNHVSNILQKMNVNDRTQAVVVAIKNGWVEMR
Kind of data set: EMSA. The following applies: MST: 50 mM Tris pH 7.5, 150 mM NaCl, 10 mM MgCl2, 0.05% Tween 20, 25 C. A general note: A gel shift assay detects complexes by their altered migration in electrophoresis.
Regarding “AGTGCTCTATGTAAAATAGAGTGCTTTTTTTGCGGTTTAATGAAATCATATTGCGAACATTCGGACCGTCTGTTTCGGTTCTTGCGCTGTTTTTTCCGGGTCAGCTTACGTACGTAAATTTTTTTCATTCTGCCATAACTGGATATTTGACAGATTTTCATTATAGTTTAAAGATTTTTAATTTTACGTAAATAATATTTTTGAAAATAAATTGCGGGATGCCGCAAAATACCCTCTGGATTCGTCGGATTTTTTTTCGGTGTGCCGCATGAAACTTTTCACCCATTTTTCG (double strand) [P01 (srfA promoter -328 to -36)]”, the binding entry is given as “no binding”. The same measure, in the same setting: the value for “ATGTGTGCGCCTCCCCTTTTTAAGATAAAGTTGTCAATTCTCCCTTAGAAACAGCCTCCCTCTATGTCCCTAACTCATTCTCAAGCCAAAAGAACCACTTACCTCCAAAAACGATCCCGATTCAATCACCGCCGAAATCCGTCATCCGTTCACCCGCGCAGTCCGAAATGCGGCATCAAATTTATGAGAAATCAAGACAAAAAGCCATTGATTGTAAGCACGAAAGGTTTACCTATTTCTGCATGTATTTCTATATATCTACTTACGTTCACTTTATATGAAAATATTGTTTTTATCAC (double strand) [P02 (srfA promoter -35 to +263)]” was “binds”.

For a further data set, the system named is DegU (Bacillus velezensis DMW1). As to the kind of experiment: MST. Conditions: MST: 50 mM Tris pH 7.5, 150 mM NaCl, 10 mM MgCl2, 0.05% Tween 20, 25 C.
For orientation: Kd means the concentration at which binding is half-saturated. Higher therefore signals a looser complex. pbae showed a Kd of 110 nM. The same measure, in the same setting: the result for pdfn reads 140 nM; that for pfen, 1170 nM.

pitu displayed a Kd of 30 nM. On the same count and under the same terms, the value for pmln was 130 nM. The same measure, in the same setting: the value for psrfA was 670 nM.
